Data from the supplement of paper PMC12636428.

The sequences below were run on Saccharomyces cerevisiae (assay: transcriptional activation domain activity (GFP:mCherry ratio, weighted mean of sorted bins, harmonized to initial dataset scale) (arbitrary fluorescence ratio units); higher = stronger transcriptional activation). Details: beta-estradiol 1 µM; induction time 4 h.
How it was run: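 Sorting into 8 bins by GFP:mCherry ratio followed a 4-hour hold at 30 °C after cultures were diluted 1:5 into SC with 1 uM beta-estradiol. The yeast diploids carried a GFP reporter and had barcoded protein tiles, fused to an estradiol-inducible synthetic transcription factor, integrated at URA3. Barcodes were then sequenced, and tiles with under 50 reads were removed. Activation activity is the read-weighted mean of bin median fluorescence, averaged across barcodes and linearly mapped onto the initial dataset scale.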

Sequence | transcriptional activation domain activity
GHLLVVSISIIIKAMHGCLYCPIFMYVTTYGYYLWIASFIWRAYYLRFQLTLH | 43600
NVLDASSVIARRAVETGGRNVPRGAAGGGAPRNRARGFELEIGNATLLGRRHN | 29200
MSFYFNFYFPICLFFIFIFIVYFLFFIFYLFYFVVYFFLFLLAFIFVFFSVVY | 41700
MGDIKKISCIFFSFIFGLVLFFFVIIITIICILWIWAWDFWACFGSGLGLLVC | 47100
MQGWVHALFSFFFNLIVVALLSCLCFIHLSSSYYNLCPVLYLTTPCLFIRFYI | 62000
YKTLDSCCSQLEGYLSRFALKLSHTHLLHLQRLLTLLHAFIAFTKEWQHNARK | 59400
MMFETHFWSLSSLLLLFFLSFFFFLYIWGSRFFFFQFPFPFPFPFPFFFSIFF | 53800
NSIIPFFRFLGCIVLSGAFYFYIFFYAFLLCLFLIYFFFHGSKLGFFHFIFFP | 40600
APSPPPAPEPVPEMKAIEAAPEPEPEPEPEDKWDVPVVAKKGKKAKKGAASQA | 25000
RKGEGEGSEPPHPAEPRRLRRSHEACARCRSKKIKCDSKHPRCTACATAGTPC | 23800
FFLKVYLLNPLHMTRFADLLYQGAILNHVFQPYESHLQYLLQWMCDYNLYGCA | 70700
LASLTPLISRRTPATTHARPHSTTQIPHRHHSAEMAEEQKPVVVADAPAAPAV | 27800
MFTGTLWLAFFLDCCLWWYMMFLCFWYEACLHVLLLGFHVYCLLWCMILSLSL | 58200
TSTGRFAFRQHRDHTTIHEGSWVSAGPGYDVGNRMWLLSRVVINAVVLELSSL | 42400
DIDEQRLQLYGVQIQIFLFVVMLYIFGCNLVIASKMVVLQPRNMVSWCCLIPS | 46800
FLSLLVLVCWVPCFVIMEVYLKSLTFNSVPYPPIHCFTPEGSHILYLCWGLIA | 32200
MLKLFWTISKVFGPSDLTLQERGHYMELIIALRFIQGWWQDRDLNGFLPLWVR | 65000
CKAHCGYILGHINIFQPINWIFVISSKVFPIDYVLYLLLILFFFSASVVGIAT | 51900
SSQPTKKPTPTTTTTTTTTTTTTTTTTTTTTEKPHTTHHTTHTTTTTTTKKAE | 36700
ASPDADGNGEVKKKYDPKDPMRPRRKKARRACYACQRAHLTCGDERPCQRCIK | 43400
IKVQYKGGLIGHQFKDLAQIMSFILYDLGPDTLIECWVRLGWFMSLLWYPKIQ | 58700
KDESSSSRRRRGGRSEKEKRERTGDEGDSSSRHRSGRDREGDEEADDDERGSS | 37500
ITNFSHPVSWLGTISPLSSLISSSLSFLSEFFSLFPLFFSFFLLFSPSISSWF | 67500
LLLLLVYSNVALLVYHAPTYTRPFDMALIHAPLRFFMILPLSLLFPYSLFITL | 57700
MRFLLLSFPCNHHPSLSLYISSISLFLLRPFIFLSLLFFCIVSYYLGVCVVWG | 53500
RGEILESKFGRSSKPSPRILIVSNSKFYIVAQALVNHQVQISVERSVPLGAIK | 51900
EKTRRNREKREKKKNKGKGGKGGGGGGNGGGGGGSGNAATVTAAAENGAGKKE | 30900
ATHPDYIDPHNAMDYLSNDGGDSYNLCHFWSNFEIADMDFWRSDAYQAFFDFL | 150000
MGLWARFICFVIVCLQITSLYCLFSCSPSFLYFKKIQPLFFTFFFFLLSLFPS | 52400
LASISSLQSSQSLDQNFSIPQSPPLSSMSFNFLTGNINETNQNHSNHQHSKSG | 22700
